Measured values published in PMC6784197.
Where a chain is given by its changes, count along the chain named. Values belong to the binder of their own block, whether it stands above or below them.

What was measured:
<CD138> Ha-La = experiment: SPR; monovalent (affinity) set-up: antibody captured via anti-hFc on CM5 chip, hCD138 as analyte 66-600 nM; Biacore T200, HBS-P+ pH 7.4, 25 °C; 1:1 Langmuir model
<CD138> Ha-Lg = experiment: as above
<CD138> Ha-Lw = experiment: as above
<CD138> Hb-La = experiment: as above
<CD138> Hb-Lg = experiment: as above
<CD138> Hb-Lw = experiment: as above
<CD138> Hw-La = experiment: as above
[1] = biological target: <CD138> Hw-Lw (parent IgG); experiment: as above
<CD138> Hg-Lw = experiment: SPR; monovalent (affinity): anti-CD138 IgG variants (30 nM) captured via anti-hFc on CM5; hCD138 as analyte, 66-600 nM; HBS-P+ pH 7.4, 25 °C; 1:1 Langmuir model; Biacore T200
[2] = biological target: T1, hCD138 (human Syndecan-1), extracellular domain (human) (UniProt P18827); experiment: SPR; bivalent (avidity) set-up: CD138 amine-coupled to CM5 chip (240 RU), IgG as analyte 33-300 nM; Biacore T200, HBS-P+ pH 7.4, 25 °C; 1:1 Langmuir model
T1 sequence: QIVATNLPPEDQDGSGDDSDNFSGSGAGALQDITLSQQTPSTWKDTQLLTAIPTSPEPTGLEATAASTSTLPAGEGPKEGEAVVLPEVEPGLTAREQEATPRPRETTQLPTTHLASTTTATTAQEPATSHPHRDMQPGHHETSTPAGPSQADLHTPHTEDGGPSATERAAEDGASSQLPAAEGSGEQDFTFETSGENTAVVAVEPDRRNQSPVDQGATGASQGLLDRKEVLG

B3: <CD138> Hb-Lg (antibody, V domains shown)
VH: QVQLQQSGSELMMPGASVKISCKATGYTFTGYWIEWVKQRPGHGLEWIGEILPGTGRTIYNEKFKGKATFTADISSNTVQMQLSSLTSEDSAVYYCARRDYYGNFYYAMDYWGQGTSVTVSS
VL: DIQMTQSTSSLSASLGDRVTISCSASQGISNYLNWYQQKPDGTVELLIYYTSSLHSGVPSRFSGSGSGTDYSLTISNLEPEDIGTYYCQQYSKLPRTFGGGTKLEIK
Kd [2]: 2.4 nM
koff [2]: 0.0005 s⁻¹
kon [2]: 390000 M⁻¹ s⁻¹

B4: <CD138> Ha-Lw (antibody, V domains shown)
VH: B3 VH with T30S, G31N, R57S
VL: B3 VL with S30N, S53T, H55Q
Kd [2]: 0.42 nM
koff [2]: 7.1e-05 s⁻¹
kon [2]: 170000 M⁻¹ s⁻¹

B5: <CD138> Ha-La (antibody, V domains shown)
VH: B3 VH with T30S, G31N, R57S
VL: B3 VL with S30N, S53T
Kd [2]: 0.4 nM
koff [2]: 6.4e-05 s⁻¹
kon [2]: 160000 M⁻¹ s⁻¹

B6: <CD138> Hb-Lw (antibody, V domains shown)
VH: B3 VH
VL: B3 VL with S30N, S53T, H55Q
Kd [2]: 0.28 nM
koff [2]: 0.00011 s⁻¹
kon [2]: 350000 M⁻¹ s⁻¹

B7: <CD138> Ha-Lg (antibody, V domains shown)
VH: B3 VH with T30S, G31N, R57S
VL: B3 VL
Kd [2]: 0.83 nM
koff [2]: 0.00029 s⁻¹
kon [2]: 160000 M⁻¹ s⁻¹

B8: <CD138> Hb-La (antibody, V domains shown)
VH: B3 VH
VL: B3 VL with S30N, S53T
Kd [2]: 0.31 nM
koff [2]: 0.00012 s⁻¹
kon [2]: 400000 M⁻¹ s⁻¹

The next lines start with the values.

Kd (<CD138> Ha-La): 240 nM
koff (<CD138> Ha-La): 0.013 s⁻¹
kon (<CD138> Ha-La): 55000 M⁻¹ s⁻¹
Kd (<CD138> Ha-Lg): 380 nM
koff (<CD138> Ha-Lg): 0.045 s⁻¹
kon (<CD138> Ha-Lg): 120000 M⁻¹ s⁻¹
Kd (<CD138> Ha-Lw): 190 nM
koff (<CD138> Ha-Lw): 0.015 s⁻¹
kon (<CD138> Ha-Lw): 76000 M⁻¹ s⁻¹
Kd (<CD138> Hb-La): 140 nM
koff (<CD138> Hb-La): 0.025 s⁻¹
kon (<CD138> Hb-La): 170000 M⁻¹ s⁻¹
Kd (<CD138> Hb-Lg): 610 nM
koff (<CD138> Hb-Lg): 0.079 s⁻¹
kon (<CD138> Hb-Lg): 130000 M⁻¹ s⁻¹
Kd (<CD138> Hb-Lw): 150 nM
koff (<CD138> Hb-Lw): 0.027 s⁻¹
kon (<CD138> Hb-Lw): 180000 M⁻¹ s⁻¹
Kd (<CD138> Hw-La): 71 nM
koff (<CD138> Hw-La): 0.0061 s⁻¹
kon (<CD138> Hw-La): 87000 M⁻¹ s⁻¹
Kd [1]: 80 nM
koff [1]: 0.0062 s⁻¹
kon [1]: 77000 M⁻¹ s⁻¹
B1: hCD138 (human Syndecan-1), extracellular domain (domain or fragment)
chain: T1 sequence

fold reduction of affinity against the parent Hw-Lw (<CD138> Hg-Lw): > 100 fold
B2: hCD138 (human Syndecan-1, R&D Systems 2780-TS) (domain or fragment)
chain: T1 sequence

Kd [2]: 230 nM
koff [2]: 0.051 s⁻¹
kon [2]: 210000 M⁻¹ s⁻¹
B9: <CD138> Hg-Lw (antibody, V domains shown)
VH: B3 VH with T55S, R57S, I59N
VL: B3 VL with S30N, S53T, H55Q
